Experimental findings from PMC4173072, “A truncated form of the Carbon catabolite repressor 1 increases cellulase production in Trichoderma reesei” are described below.

This data set addresses CREI-96 (truncated Carbon catabolite repressor 1, Cre1-96) (Trichoderma reesei Rut-C30, UniProt G0RB08 1-96). The data set is described as follows: competition; 2000 nM protein; 50-, 100-, 200-fold competitor against N1; bands unchanged; GST elution buffer, 10 min at 22 °C; non-denaturing PAGE; salt and pH not stated. Conditions: protein: recombinant; tags: GST fusion (37 kDa), thrombin-cleaved before use; label: unlabelled; blunt.

Chain of CREI-96 (truncated Carbon catabolite repressor 1, Cre1-96) (G0RB08 entry or part of it): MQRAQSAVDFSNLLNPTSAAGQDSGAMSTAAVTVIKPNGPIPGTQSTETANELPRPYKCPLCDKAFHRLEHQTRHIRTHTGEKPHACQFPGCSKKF

B1: mutated cold competitor RG221/RG222 (dsDNA)
DNA 1: CCAACGGCTTGTTGGGTTGCAGAAGCAACGGCAAAGCCCAACTTCCCAACGTTTGTTTCT
DNA 2: AGAAACAAACGTTGGGAAGTTGGGCTTTGCCGTTGCTTCTGCAACCCAACAAGCCGTTGG
Take B1: the binding result is reported as “no binding”.
